B1: Non-catalytic caspase homolog csp-3 (Caenorhabditis elegans), G5ECW5 (parent)
chain: MFFGKLGGFAFFLQRAVRCDGFIDNFFDRIPKFFQFMKSKFPSHQTSSSQADLLVSFSTSPGFLSFKDETKDTWYIQELYRVIIENAKDTHLADLLTETNRRVVEKYEADKVVFVCKQAPEFWSRFTKQLFFMSRNDVF
partner: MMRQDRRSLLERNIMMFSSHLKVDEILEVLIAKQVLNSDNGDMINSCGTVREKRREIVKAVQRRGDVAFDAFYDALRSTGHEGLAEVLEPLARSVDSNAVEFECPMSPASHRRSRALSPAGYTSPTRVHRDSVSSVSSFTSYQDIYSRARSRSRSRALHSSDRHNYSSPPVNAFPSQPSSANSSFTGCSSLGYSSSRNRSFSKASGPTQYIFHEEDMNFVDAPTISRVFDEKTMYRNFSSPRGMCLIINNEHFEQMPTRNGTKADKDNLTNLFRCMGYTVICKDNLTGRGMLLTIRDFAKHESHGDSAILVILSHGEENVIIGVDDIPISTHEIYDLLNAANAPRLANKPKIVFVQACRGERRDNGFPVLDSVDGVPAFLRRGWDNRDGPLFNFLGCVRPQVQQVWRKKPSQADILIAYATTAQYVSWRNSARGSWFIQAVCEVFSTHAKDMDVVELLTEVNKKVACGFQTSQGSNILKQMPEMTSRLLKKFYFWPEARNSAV

Variants of: B1
Conditions: with ced3_caeel ced-3, P42573

Row | effect of a mutation on the interaction | Variant
1 | decreasing interaction | MFFGKLGGFAFFLQRAVRCDGFIDNFFDRIPKFFQFMKSKFPSHQTSSSQADLLVSDSTSPGFLSFKDETKDTWYIQELYRVIIENAKDTHLADLLTETNRRVVEKYEADKVVFVCKQAPEFWSRFTKQLFFMSRNDVF

Variants of: B1
Conditions: with ced3_caeel ced-3, P42573
Remark: another data set of the same source

Row | effect of a mutation on the interaction | Variant
2 | decreasing interaction strength | MFFGKLGGFAFFLQRAVRCDGFIDNFFDRIPKFFQFMKSKFPSHQTSSSQADLLVSDSTSPGFLSFKDETKDTWYIQELYRVIIENAKDTHLADLLTETNRRVVEKYEADKVVFVCKQAPEFWSRFTKQLFFMSRNDVF

Source: IntAct's records for PubMed 18776901
